Changes are numbered by the printed parent chain.
How the values were obtained:
TPX2 = TPX2 (UniProt Q9ULW0); experiment: anti-FLAG resin co-IP, TPX2 blot; details: reference: FLAG-ADD1 wild type, M phase; sites S726
[1] = target: T1, FLAG-ADD1 S726A mutant, expressed in HeLa cells (UniProt P35611 1-737, S726A); experiment: co-IP; HeLa cells expressing FLAG-ADD1 WT or S726A, synchronized at the M phase (nocodazole); lysates in TBS buffer (1% Triton X-100, 50 mM Tris-HCl pH 7.4, 150 mM NaCl) incubated with anti-FLAG M2 affinity resins for 16 h, eluted with FLAG peptide, blotted with anti-FLAG and anti-TPX2; details: partners not purified
T1 construct: adducin-1 (ADD1) with S726A; source: HeLa cells expressing FLAG-ADD1 S726A (lentiviral vector pLAS3w.Pneo), in whole-cell lysate
T1 sequence (looked up): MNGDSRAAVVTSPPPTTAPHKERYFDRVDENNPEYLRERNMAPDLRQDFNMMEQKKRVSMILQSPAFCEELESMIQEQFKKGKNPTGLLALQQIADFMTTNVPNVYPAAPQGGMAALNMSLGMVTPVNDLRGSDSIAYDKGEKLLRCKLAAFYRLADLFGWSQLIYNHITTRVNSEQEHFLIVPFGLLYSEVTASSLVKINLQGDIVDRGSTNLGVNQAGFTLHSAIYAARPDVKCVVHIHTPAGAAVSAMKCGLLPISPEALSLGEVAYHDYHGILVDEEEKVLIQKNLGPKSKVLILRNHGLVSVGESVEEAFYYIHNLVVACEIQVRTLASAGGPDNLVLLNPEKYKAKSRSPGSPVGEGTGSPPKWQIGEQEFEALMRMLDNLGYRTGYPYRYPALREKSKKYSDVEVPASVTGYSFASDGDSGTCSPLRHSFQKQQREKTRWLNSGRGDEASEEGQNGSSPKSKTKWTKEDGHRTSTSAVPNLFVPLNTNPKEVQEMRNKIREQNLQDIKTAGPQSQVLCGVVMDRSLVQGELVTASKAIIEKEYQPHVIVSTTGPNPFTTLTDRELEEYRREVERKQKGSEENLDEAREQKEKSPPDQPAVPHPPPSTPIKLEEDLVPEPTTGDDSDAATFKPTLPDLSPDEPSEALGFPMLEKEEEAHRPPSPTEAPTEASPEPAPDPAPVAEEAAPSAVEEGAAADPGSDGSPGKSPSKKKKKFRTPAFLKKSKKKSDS

[2] = target: T2, FLAG-ADD1 WT (adducin-1), transiently expressed in HEK293 cells (UniProt P35611 1-737); experiment: pull-down; GST-TPX2 fusion proteins immobilised on glutathione agarose beads, incubated with 25 μg of lysates from HEK293 cells expressing FLAG-tagged ADD1 forms at 4°C for 60 min; washed with TBS buffer; blot with anti-FLAG; details: one partner purified
T2 construct: adducin-1 (ADD1); pCMV-3Tag-3A probably adds a C-terminal 3x FLAG; also called FLAG-tagged ADD1; 293/FLAG-ADD1; source: HEK293, transiently transfected, in lysate
T2 sequence (looked up): T1 sequence (looked up) with A726S

adducin-1 (ADD1) (from UniProt P35611) FLAG-ADD1 S726A, M phase
TPX2 co-IP binding relative to wild type (TPX2): weaker

B1: TPX2, endogenous in HeLa cells (natural protein, human (endogenous in HeLa), UniProt Q9ULW0 1-747, looked up)
chain: MSQVKSSYSYDAPSDFINFSSLDDEGDTQNIDSWFEEKANLENKLLGKNGTGGLFQGKTPLRKANLQQAIVTPLKPVDNTYYKEAEKENLVEQSIPSNACSSLEVEAAISRKTPAQPQRRSLRLSAQKDLEQKEKHHVKMKAKRCATPVIIDEILPSKKMKVSNNKKKPEEEGSAHQDTAEKNASSPEKAKGRHTVPCMPPAKQKFLKSTEEQELEKSMKMQQEVVEMRKKNEEFKKLALAGIGQPVKKSVSQVTKSVDFHFRTDERIKQHPKNQEEYKEVNFTSELRKHPSSPARVTKGCTIVKPFNLSQGKKRTFDETVSTYVPLAQQVEDFHKRTPNRYHLRSKKDDINLLPSKSSVTKICRDPQTPVLQTKHRARAVTCKSTAELEAEELEKLQQYKFKARELDPRILEGGPILPKKPPVKPPTEPIGFDLEIEKRIQERESKKKTEDEHFEFHSRPCPTKILEDVVGVPEKKVLPITVPKSPAFALKNRIRMPTKEDEEEDEPVVIKAQPVPHYGVPFKPQIPEARTVEICPFSFDSRDKERQLQKEKKIKELQKGEVPKFKALPLPHFDTINLPEKKVKNVTQIEPFCLETDRRGALKAQTWKHQLEEELRQQKEAACFKARPNTVISQEPFVPKKEKKSVAEGLSGSLVQEPFQLATEKRAKERQELEKRMAEVEAQKAQQLEEARLQEEEQKKEELARLRRELVHKANPIRKYQGLEIKSSDQPLTVPVSPKFSTRFHC
notes: TPX2, endogenous protein of HeLa cells detected with anti-TPX2; source: endogenous, HeLa whole-cell lysate
percent decrease of the interaction relative to FLAG-ADD1 WT [1]: ~50%

B2: GST-TPX2 aa 120–370 fusion protein (domain or fragment, human, UniProt Q9ULW0 120-370, looked up)
chain: RSLRLSAQKDLEQKEKHHVKMKAKRCATPVIIDEILPSKKMKVSNNKKKPEEEGSAHQDTAEKNASSPEKAKGRHTVPCMPPAKQKFLKSTEEQELEKSMKMQQEVVEMRKKNEEFKKLALAGIGQPVKKSVSQVTKSVDFHFRTDERIKQHPKNQEEYKEVNFTSELRKHPSSPARVTKGCTIVKPFNLSQGKKRTFDETVSTYVPLAQQVEDFHKRTPNRYHLRSKKDDINLLPSKSSVTKICRDPQTP
notes: TPX2, Homo sapiens, aa 120–370 of the full-length cDNA (aa 1–747), subcloned into pGEX-2T; pGEX-2T probably places GST at the N-terminus; also called TPX2 aa 120–370 fragment; GST-tagged TPX2 aa 120–370; source: E. coli BL21, purified on glutathione agarose beads
binding result [2]: binds

— article PMC6073210, “Adducin‐1 is essential for spindle pole integrity through its interaction with TPX2” (EMBO Reports, 2018)
